# Reference: patent US20220112288A1 (published 2022)
# B1: 75110_14I16A (antibody, V domains shown)
# VH: QVQLQESGPGLVKPSETLSLTCTVSNGSISSYYWSWIRQSAGKGLEWIGRIYTSGSTNYNPSLKSRVTMLVDTSKNQFSLKLSSVTAADTAVYYCARDREDYYYYGMDVWGQGTTVTVSS
# VL: DIQMTQSPSSLSASVGDRVTITCQASHDISNYLNWYQQKPGKAPKLLLYYASNLETGVPSRFSGSGSGTDFTFTITSLQPEDIGTYSCQQYDNLPLTFGGGTKVEIK
# notes: Tested as antibody purified from AlivaMab Mouse hybridoma supernatant (human variable domains, kappa; mouse Fc, captured on anti-mouse IgG Fc sensors); also called ADS75110 purified AMM Ab
# B2: 75110_14N19A (antibody, V domains shown)
# VH: QVQLQESGPGLVKPSETLSLTCTVSGGSISRYYWSWIRQPAGKGLEWIGRICTSENPNYNPALKSRVTMSVDTSKNQFSLKLSSVTAADTAVYYCARELERLNYYGMDVWGQGTTVTVSS
# VL: DIQMTQFPSSLSASVGDRVTITCQASQDISNYLNWYQQKPGKAPKLLIYDASNLESGVPSRFSGRGSGTDFTFTISSLQPEDFATFYCQQYDTLPITFGQGTRLEIK
# notes: as for B1
# B3: 75110_12K21A (antibody, V domains shown)
# VH: QVQLQQWGAGLLKPSETLSLTCAVSGGSFSGYYWSWIRQPPGKGLEWIGEINHSGSTNCNPSLKSRVTISVDTSNNQFSLKLSSVTAADTAVYYCARVLNYFDYWGQGTLVTVSS
# VL: DIQMTQSPSSVSASVGDRVTITCRASPDIANWLAWYQQKPGKAPELLIYAASSLQSGVPSRFSGSGSGTDFTLTISSLQPEDFATYFCQQANSFPLTFGGGTKVESK
# notes: as for B1
# B4: 75110_13P21A (antibody, V domains shown)
# VH: QVQLQQWGAGLLKPSETLSLTCAVSGGSFSGYYWSWIRQPPGKGLEWIGEINHSGSTNCNPSLKSRVTISVDTSNNQFSLKLSSVTAADTAVYYCARVLNYFDYWGQGTLVTVSS
# VL: DIQMTQSPSSVSASVGDRVTITCRASPDIANWLAWYQQKPGKAPELLIYAASSLQSGVPSRFSGSGSGTDFTLTISSLQPEDFATYFCQQANSFPLTFGGGTKVESK
# notes: as for B1
# B5: 75110_13C13A (antibody, V domains shown)
# VH: QVQLQQWGAGLLKPSETLSLTCAVSGGSFSGYYWSWIRQPPGKGLEWIGEINHSGSTNCNPSLKSRVTISVDTSKNQFSLKLSSVTAADTAMYYCARVLNFFDYWGQGTLVTVSS
# VL: DIQMTQTPSSVSASVGDRVTITCRASPGISNWLAWYQQKPGKAPELLIYAASSLQSGVPSRFSGSGSGTDFTLTISSLQPEDFATYFCQQANSFPLTFGGGTKVESK
# notes: as for B1
# B6: 75110_01D24A (antibody, V domains shown)
# VH: QVQLQQWGAGLLKPSETLSLTCAVYGGSFSGYYWSWIRQPPGKGLEWIGEINHSGSTNYNPSLKSRVTISVDTSENQFSLKLNSVTAADTAVYYCARLVNWFDPWGQGTLVTVSS
# VL: EIQMTQSPSSVSASVGDRVTITCRASQDISNWLAWYQQKPGKAPNLLIFAASSLQTGVPSRFSGSGSGTDFTLTISSLQPDDFATYYCQQANSFPYSFGQGTNLGIK
# notes: Tested as antibody purified from AlivaMab Mouse hybridoma supernatant (captured by anti-mouse IgG Fc)
# B7: 75110_03L12A (antibody, V domains shown)
# VH: QVQLQQWGAGLLKPSETLSLTCAVYGGSFSGYYWSWIRQPPGKGLEWIGEINHSGSTNYNPSLKSRVTISVDTSENQFSLTLISVTAADTAVYYCVRLINWFDPWGQGTLVTVSS
# VL: DIQMTQSPSSVSASVGDRVTITCRASQDISNWLAWYQQKPGKAPKLLIFAASSLQSGVPSRFSGSGSGTDFTLTISSLQPDDFATYYCQQANSFPYTFGQGTNLGIK
# notes: as for B6
# B8: 75110_04F22A (antibody, V domains shown)
# VH: EVQLVESGGGLVQPGGSLRLSCAASGFTFSSYDIHWVRQATGKGLEWVSTIGTAGDTYYPGSVKGRFTISRENAKNSLYLQMNSLRAGDTAVYYCARGGYYYYGMDVWGQGTTVTVSS
# VL: EIVLTQSPGTLSLSPGERATLSCRASQSVYSSYLAWYQQKPGQAPRLLIYGASSRATGIPDRFSGSGSGTDFTLTISRLEPEDFAVYYCQQFGTSPFTFGPGTKVDIK
# notes: as for B6
# B9: 75110_01E08A (antibody, V domains shown)
# VH: EVQLVESGGGLVQPGGSLRLSCAASGFTFNNYDMHWVRQATGKGLEWVSTIGTAGDTYYPASVKGRFTIYRENAKNSLYLQMNSLRAGDTAVYYCARGGDYYYGMDVWGQGTTVTVSS
# VL: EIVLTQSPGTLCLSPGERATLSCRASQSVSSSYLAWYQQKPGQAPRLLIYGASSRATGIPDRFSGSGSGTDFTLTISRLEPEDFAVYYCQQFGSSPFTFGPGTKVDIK
# notes: as for B6
# B10: 75110_01N04A (antibody, V domains shown)
# VH: EVQLVESGGGLVQPGGSLRLSCAASGFTFSNYDMHWVRQATGKGLEWVSTIGTAGDTYYPGSVKGRFTISRENAKNSLYLQMNSLRAGDTAVYYCARGGDFYYGLDVWGQGTTVTVSS
# VL: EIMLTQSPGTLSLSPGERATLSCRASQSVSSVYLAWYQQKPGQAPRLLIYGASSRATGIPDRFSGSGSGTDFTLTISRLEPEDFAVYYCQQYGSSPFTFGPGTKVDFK
# notes: as for B6
# B11: 75110_01J17A (antibody, V domains shown)
# VH: EVQLVESGGGLVQPGGSLRLSCAASGFTFSSYDMHWVRQGTGKGLEWVSTIGTADDTYYPGSVKGRFTISRENAENSLYLQMNSLRAGDTAVYYCARGGDYYYGMDVWGQGTTVTVSS
# VL: EIVLAQSPGTLSLSPGERATLSCRASQSVYISYLAWYQQKPGQAPRLLIYGASSRATGIPDRFSGSGSGTDFTLTITRLEPEDFAVYYCQQFGSSPFTFGPGTKVDFK
# notes: as for B6
# B12: 75110_01G11A (antibody, V domains shown)
# VH: EVQLVESGGGLVQPGGSLRLSCAASGFTFSSYDMHWVRQATGKGLEWVSTIGTAGDTYYPGSVKGRFTISRENARNSLFLQMNSLRAGDTAVYYCARGGDYYYGMDVWGQGTTVTVSS
# VL: EIVLTQSPGTLSLFPGERATLSCRASQNTYSSYLAWYQQKPGQAPRLLIYGASNRATGIPDRFSGSGSGTDFTLTISRLEPEDFAVYYCQQHGTSPFTFGPGTKVDIK
# notes: as for B6
# B13: 75110_01A06A (antibody, V domains shown)
# VH: EVQLVESGGGLVQPGGSLRLSCAASGFTFSSYWMSWVRQAPGKGLEWVANINEDGNEKYYVDSVKGRLTISRDNAKNSLYLQMNSLRAEDTAVYFCAREGGQWLSLDYWGQGALVTVSS
# VL: DIQMTQSPSSVSASVGDRVSITCRASQGISSWLAWYQQKPGKAPKILIYGASSLQSGVPSRFSGSGSGTDFTLTISSLQPEDFATYYCQQANSFPWTFGQGTKVEIK
# notes: as for B6
# B14: 75110_01J09A (antibody, V domains shown)
# VH: EVQLVESGGGLVQPGGSLRLSCVASGFTFSSYWMSWVRQAPGKGLEWVANTKEDGSDKYYVDSVKGRFTICRDNAKNSLYLQMNSLRAEDTAVYYCAREGGQWLALDYWGQGTLVTVSS
# VL: DIQMTQSPSSVSASVGDRVTINCRASQGISSWLAWYQQKPGKAPNLLIFGASSLQSGVPSRFSGSGFGTDFSLTITTLQPEDFATYHCQQANSFPWTFGQGTKVEIK
# notes: as for B6
# B15: 75110_01H18A (antibody, V domains shown)
# VH: QVQLQQWGAGLLKPSETLSLTCAVYGGSFSGYYWSWIRQSPGKGLEWIGEINQSGSTNYNPSLKSRVTISVDTSKNQFSLKLSSVTAADTAVYYCARVINWFDSWGQGTLVTVSS
# VL: DIQMTQSPSSVSASVGDRVTITCRASQGISSWLAWYQQKPGKAPKLLIYAASSFQSGVPSRFSGSGSGTDFTLTISSLQTEDFATYYCQQANSFPYTFGQGTRLEIK
# notes: as for B6
# B16: 75110_02N15A (antibody, V domains shown)
# VH: EVQLVESGGGLVQPGGSLRLSCAASGFTFSSYWMSWVRQAPGKGLEWVANINEDGNEKYYVDSVKGRFTISRDNAKNSLFLQMNSLRAEDTAVYFCAREGGQWLALDHWGQGALVTVSS
# VL: DIQMTQSPSSVSASVGDRVTITCRASQGISSWLAWYQQKPGKAPKFLISGASSLQSGVPSRFSGSGSGTDFTLTISSLQPEDFATYYCQQANSFPWTFGQGTKVEFK
# notes: as for B6
# B17: 75110_03D16A (antibody, V domains shown)
# VH: EVQLVESGGGLVQPGGSLRLSCAASGFTFSSYWMSWVRQAPGKGLEWVANINQDGGEKYYVDSVKGRFTISRDNAKNSLYLQMNSLRAEDTAVYYCVREGGQWLALDYWGQGTLVTVSS
# VL: DIQMTQSPSSVSASVGDRVTITCRASQGISSWLTWYQQKPGKAPKFLIYAASSLQSGVPSRFSGSGFGTDFTLTISSLQPEDFATYYCQQANSFPWTFGQGTKVEIK
# notes: as for B6
# B18: 75110_04K10A (antibody, V domains shown)
# VH: EVQLVESGGGLVQPGGSLRLSCAASGFTFSSYWMSWVRQAPGKGLEWVANINQDGSEKYYVDSVKGRFTISRDNAKNSLYLQLNSLRAEDTAMYYCAREGGQWLSLDYWGQGTLVTVSS
# VL: DIQMTQSPSSVSASVGDRVTITCRASQGISSWLAWYQQKPGKAPKVLIYGVSSFQSGVPSRFSGSGSGTDFILTISSLQPEDFATYYCQQANSFPWTFGQGTKVEIK
# notes: as for B6
# B19: 75110_03C01A (antibody, V domains shown)
# VH: QVQLQQWGAGLLKPSETLSLTCAVYGGSFSGYYWSWIRQSPGKGLEWIGEINQSGSTNYNPSLKSRVTISVDTSKDQFSLKLSSVTAADTAVYYCARVINWFDSWGQGSLVTVSS
# VL: DIQMTQSPSSVSASVGDRVTITCRASQGISSWLAWYQQKPGNAPKLLIYDASSFQSGVPSRFSGSGSGTDFTLTISSLQTEDFATYYCQQANSFPYTFGQGTKLEIK
# notes: as for B6
# Molecular target: T1, Rhesus macaque CD4-HIS (Acro Biosystems, Cat. CD4-C52H7) (rhesus macaque, UniProt P16003 26-390)
# T1 construct: Bought reagent; also called Rhesus CD4; rhesus CD4-HIS; not shown: His tag
# Experiment: BLI (Octet Red384); Ab on anti-mouse Fc (AMC) sensor; rhesus CD4-HIS 100/50/25 nM; global 1:1 fit;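 also: antibodies loaded at 10 µg/mL, an unrelated mouse-derived antibody served as internal reference, curves fit over association and dissociation phases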
Binder,Kd [nM],Response,koff [s⁻¹],kon [M⁻¹ s⁻¹]
B1,14,0.13,0.0027,190000
B2,14,0.17,0.0021,150000
B3,21,0.16,0.0056,270000
B4,75,0.11,0.013,170000
B5,8.3,0.09,0.0046,550000

# Molecular target: T2, Rhesus macaque CD4-HIS (Acro Biosystems, Cat. CD4-C52H7) (rhesus macaque, UniProt P16003 26-390)
# T2 construct: Bought reagent; also called Rhesus CD4; rhesus CD4-HIS; not shown: His tag
# Experiment: BLI Octet, mAb on anti-mouse Fc sensor, rhesus CD4-HIS 25-100 nM, 1:1 global fit;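 also: purified antibodies captured at 10 µg/mL, rhesus CD4 analyte run as a three-concentration serial dilution, irrelevant antibody as reference control, one kinetic constant set per antibody from global fitting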
Binder,Kd [nM],Response,koff [s⁻¹],kon [M⁻¹ s⁻¹]
B6,340,0.08,0.064,190000
B7,72,0.08,0.016,220000
B8,7.2,0.04,0.0011,150000
B9,0.98,0.1,0.00014,140000
B10,0.035,0.02,0.0061,1.7e+08
B11,22,0.05,0.0017,79000
B12,64,0.03,0.0018,28000
B13,7.8,0.39,0.001,130000
B14,70,0.17,0.0032,46000
B15,130,0.11,0.017,130000
B16,14,0.29,0.0026,190000
B17,12,0.1,0.002,160000
B18,48,0.17,0.0032,67000
B19,9.8,0.18,0.0027,280000
